Assay results from the supplement of paper PMC12042874.
± gives the uncertainty stated by the source.

Test: amyloid nucleation score (Sup35N fusion, yeast selection) (log enrichment); library NNK1; higher = more nucleation; inactive = no reads after selection
Outline: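 Libraries of peptides of 20 random codons fused to Sup35N were expressed in psi-negative yeast and induced 24 hours with 100 μM copper sulfate. Selection was 7 days at 30°C on medium lacking adenine and uracil, and plasmid inserts were Illumina-sequenced before and after selection. Nucleation score is the DiMSum log enrichment of output over input reads, centred on the mode score of non-aggregating sequences, and sequences with under 100 input reads were left out.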

| Substance | amyloid nucleation score |
| --- | --- |
| VLFGS | -0.462 ± 0.93 |
| VLGDLVRFRAYASRAIMLSL | -0.11 ± 0.79 |
| VLIDMSGSCSKAMHAIRQDR | 0.218 ± 0.73 |
| VLKLLVVRFVPLPSSFYTCE | 0.193 ± 0.92 |
| VLKVCTWIKYLQSV | -0.279 ± 0.33 |
| VLLFNHYFLRAAVIIAWVGW | -0.618 ± 1.6 |
| VLLIRYYFMKFDLSL | 0.359 ± 0.47 |
| VLMCDGFHALRKL | 1.97 ± 0.36 |
| VLNFEGMSRAVFLRLISIQQ | -0.837 ± 0.9 |
| VLNNLDLCSIRIVSKVSLFM | 6.88 ± 0.085 |
| VLRCVISLQV | inactive |
| VLRIDSPLSMILFEVVRCEQ | -0.322 ± 0.31 |
| VLSKFIVSDLMAISQNKLHR | inactive |
| VLTKWGIWGGQWCTVLSRGR | 0.211 ± 0.37 |
| VLTVRLTMLDCHLAAFSSNA | 1.66 ± 0.16 |
| VLTWFDCYLICLYTRTSLRI | 0.365 ± 0.41 |
| VLVDGSRSWGG | 0.952 ± 0.52 |
| VLVDKSDRVRGLS | -0.101 ± 0.3 |
| VLVFIFDSTVSI | 8.236 ± 0.046 |
| VLYAP | -0.33 ± 1.7 |
| VLYELSKMGYRVLLYTHPDR | 0.125 ± 0.46 |
| VMAGHFCYWCRCRVARQLSW | -0.69 ± 0.77 |
| VMFRLTGELGDMKCGVLSDA | 1.47 ± 0.38 |
| VMGLT | -0.242 ± 1.1 |
| VMGSGLRMGLAESCVENGAS | -0.021 ± 0.31 |

| Substance | amyloid nucleation score |
| --- | --- |
| VMLFSDVFWALMLHFYDPAF | -1.01 ± 0.61 |
| VMMYLFYFHTRMCMSHLCYA | -0.891 ± 1.6 |
| VMPYYRRSQNHDSFNFGDVS | 0.552 ± 0.52 |
| VMSFILYLSMLCGARDSQRH | 2.89 ± 0.14 |
| VMTFLISLSWYSL | 0.328 ± 0.23 |
| VMWRFKSVTCI | -0.393 ± 0.33 |
| VNCFSTLSMLWMSVQTEPRV | 1.04 ± 0.28 |
| VNCGSYVDLDVGVIGPR | 0.255 ± 0.84 |
| VNIKLLVVRAVFVILKDMGK | 2.16 ± 0.12 |
| VNLGVRAGGLCRHAEKGDMT | -0.364 ± 0.53 |
| VNLHWGSDEAVSIARDIYTW | 0.533 ± 0.29 |
| VNMSKHYRRGWGDDVATGVR | 0.693 ± 0.49 |
| VNPNGGEDNVLGCPIRSWQW | -0.031 ± 1.2 |
| VNSFCR | 0.587 ± 1.1 |
| VNSIESCANFH | -0.198 ± 1.7 |
| VNSRCLSAYTK | 0.46 ± 0.34 |
| VNVNNLRRTYNIRWVVGPGL | 5.57 ± 0.064 |
| VNWIVVVFTNMLFLTKGRNA | 0.308 ± 0.27 |
| VNYTTSQSRRDFPSNRSQSG | 0.715 ± 0.83 |
| VPLVVNRDARH | 1.26 ± 0.59 |
| VPSNLQGSPFPQLGMSALVH | 0.149 ± 0.62 |
| VPTMEMTVAYGSWTCSERCE | -0.468 ± 0.44 |
| VPWLKGAVDPVTRFGV | -0.016 ± 0.78 |
| VQRCWYGR | -1.94 ± 2.7 |
| VRAELFLTLPKGTQADALAV | -0.166 ± 0.67 |

| Substance | amyloid nucleation score |
| --- | --- |
| VRALND | -0.581 ± 0.3 |
| VRCVICCFCIWLKAWWDYKR | 1.47 ± 0.45 |
| VRDGDTMILGVYRNIWGTNV | 0.429 ± 0.24 |
| VRFSVLKVTVLTKARNEVST | 1.7 ± 0.24 |
| VRGSVGANGQHVPEDMTVRM | 0.786 ± 0.44 |
| VRIAPHKGPDRTSGVLLGRM | 0.838 ± 0.75 |
| VRKISIFFMNSWVWLSSRFH | 0.069 ± 0.49 |
| VRKSSVASLECQNA | 0.335 ± 0.28 |
| VRLGMRQMCYQKNRTCQVYF | -0.173 ± 0.62 |
| VRLVVQWEKVKDCLIVWD | 1.85 ± 0.12 |
| VRMGQDRHIISTKLTVSREL | -1.22 ± 2.7 |
| VRNDLNTH | 0.377 ± 0.19 |
| VRNDQRLLCRRFVKFSDFQS | -0.62 ± 0.95 |
| VRNWCVGSTVARRYHWMTCP | 0.413 ± 0.58 |
| VRPMSDNSRVCVKSDNRSTG | -1.14 ± 0.93 |
| VRSGRSDATAAKYFLHLTWY | -0.465 ± 0.89 |
| VRSLARNG | 0.947 ± 0.7 |
| VRSPNIEYDFCRVLPTLTGE | 0.505 ± 1.4 |
| VRVQTRHLGDGLPHGQDKCY | -0.403 ± 0.52 |
| VRVVSTSRILFHGFFRNNKG | 0.567 ± 0.33 |
| VRYVNRLKAHALDPKLKTL | -0.18 ± 0.62 |
| VSALAVRARWAINTLARDRR | 0.9 ± 0.66 |
| VSCCNSQTSQLMDFGNKVSP | 0.349 ± 0.25 |
| VSCQHTVFKVICSYLPHLCK | 0.666 ± 0.59 |
| VSFRTLYGRI | -0.187 ± 0.27 |

| Substance | amyloid nucleation score |
| --- | --- |
| VSHIAPRWPLSRTIRETQRM | 0.479 ± 1.2 |
| VSHSGCKSF | -0.434 ± 0.47 |
| VSIGILLFILPSRTGCVCLM | 0.087 ± 0.66 |
| VSKGLEHRPHVWG | 5.35 ± 0.064 |
| VSLLKGRVAMSRG | 1.1 ± 0.38 |
| VSLVMWVYCGDDWLSFAIRA | -0.211 ± 0.38 |
| VSMHNLMQRFSGFMYQCFAG | 1.55 ± 0.2 |
| VSNFIGVFVAVSWRYDDLCF | 0.324 ± 1.2 |
| VSNRTVNDGYGSSGAALCLR | 0.099 ± 0.44 |
| VSRLRSDWNL | 1.43 ± 0.3 |
| VSVSNISSVLTLSGKMLIST | -0.031 ± 0.39 |
| VSWECSIVNAYMQPATCDII | 4.88 ± 0.1 |
| VSWHGSVLHRACMKWVCMCG | 0.51 ± 0.79 |
| VSYLEGVRWLCIIYTGNRSW | inactive |
| VTCRLPETMPGGTWLNMIIR | inactive |
| VTFLIMGWLRDRRV | -0.563 ± 0.39 |
| VTFWDPVVLTTPPKLCI | -0.946 ± 0.49 |
| VTHNSTAHE | 1.09 ± 0.75 |
| VTNTSLFSIAKSLGHHHEGR | 0.272 ± 0.4 |
| VTPGRLQRLVM | -1.39 ± 0.58 |
| VTRFRYECRSGHRKHPGGMD | inactive |
| VTVEIAWKMA | 0.054 ± 0.67 |
| VTYDKAQG | 0.051 ± 0.68 |
| VVAGNSAKEIYKFTGADTPY | -0.751 ± 0.57 |
| VVCNCGHGIKNIC | -1.08 ± 1.6 |

| Substance | amyloid nucleation score |
| --- | --- |
| VVDEKREVRSLANVNTASSL | 0.1 ± 0.28 |
| VVDLVHVCSFFTFYVCATLL | 1.66 ± 0.6 |
| VVDSTFWEVIHRRWASAMLD | -0.657 ± 0.68 |
| VVESGVFWDSSYNFKGDTVW | 0.532 ± 0.92 |
| VVGRGKLQCVLFRHDTAYRV | -0.058 ± 0.28 |
| VVISMTTMKVFMLVYTMDFM | 0.046 ± 0.21 |
| VVKLRHYAEKICGSETELG | 0.003 ± 0.51 |
| VVLQTTPSAYSIMVHLWYYS | 0.472 ± 0.46 |
| VVLSIYTNITSCCDLLTSRR | 6.787 ± 0.047 |
| VVNSSS | 0.537 ± 0.85 |
| VVRWSFDNAYSSSLDNLIVI | -0.209 ± 0.34 |
| VVSLNE | 0.915 ± 0.9 |
| VVSTPHSN | -0.099 ± 0.85 |
| VVTRYL | 0.403 ± 0.36 |
| VVTVLGVGLDSSSSGWWFVA | 0.168 ± 0.46 |
| VVVVKLQVQCDGESMSACLG | -0.495 ± 1.5 |
| VVWYLMVFWPCDSLSPMSRS | 0.559 ± 0.4 |
| VWCRFERDTISKLCASWGRR | -0.237 ± 1.9 |
| VWENQLVWMVWWWEGTGS | 0.527 ± 0.49 |
| VWEQLIAE | -0.26 ± 0.84 |
| VWIDLSMCIYMLEPLNSLFR | 1.95 ± 0.19 |
| VWKDS | -0.285 ± 0.65 |
| VWMRVKIGGVWC | 1.58 ± 0.47 |
| VWNNKECANFDNIWATLLIV | inactive |
| VWVKSHLY | -0.537 ± 0.25 |

| Substance | amyloid nucleation score |
| --- | --- |
| VYAMGIHWRFCAKKRIMSG | -0.802 ± 1.7 |
| VYAQMALLR | -0.164 ± 0.62 |
| VYCCTYVQINVGVERSTEIR | 7.044 ± 0.05 |
| VYCVCYLWLKVVHKSLDTLS | 2.23 ± 0.079 |
| VYIVCYFLHTGSFGWTCCVE | inactive |
| VYKTRVYVDCYEILDGSKEM | 0.491 ± 0.45 |
| VYRLEVIARK | 1.69 ± 0.33 |
| VYSEVSFDF | inactive |
| VYSWNNYGDRKILMLFLTGY | 4.63 ± 0.065 |
| VYTSTVMFEHMDRNMLMVKM | 0.166 ± 0.21 |
| VYVDSCCHMF | 7.508 ± 0.069 |
| VYVIIWSIILGRTVAGWMYY | inactive |
| VYWRFPRSNGEWYNMLVLKD | -0.576 ± 0.53 |
| VYWRREVSI | 0.312 ± 1.2 |
| WACMWAQSPYGAFFIVSMED | -0.223 ± 0.38 |
| WCGKACFVYKSHGQGG | 0.235 ± 0.53 |
| WCRCTINFRHEDLNPFFNPK | 2.01 ± 0.16 |
| WCRIVG | 0.227 ± 0.57 |
| WCWNAAQLSMVYSDMNFVAV | 0.675 ± 1 |
| WDCYCPWLTLKYEAGLRTSG | -1.17 ± 1.9 |
| WDWVYGKFLR | 0.736 ± 0.26 |
| WDYSRLLFAYNKIVTERNNG | -0.356 ± 0.29 |
| WEFRRWGLRLHLSFLASLGA | -0.015 ± 0.25 |
| WEGGGMGNYVQRHACARHKV | 0.125 ± 0.3 |
| WEWIQDVWVPHISDPLSWAI | -1.2 ± 0.83 |

| Substance | amyloid nucleation score |
| --- | --- |
| WFSINIGKMGARVLSVGQDG | inactive |
| WFVTFVWVSSVRTILP | 0.361 ± 1 |
| WFWIMIFRHCNVIL | 0.404 ± 0.5 |
| WFYTVARPNVSSSLESRTEP | 0.137 ± 0.22 |
| WGIFSMYHWRYAVRDRSMHS | inactive |
| WGPRSVNGTLRI | -0.488 ± 0.32 |
| WGQFYVLTSVLHYINQWH | -2.58 ± 2.7 |
| WGQTWDVFY | 0.916 ± 0.46 |
| WGTLVIGCFVHTVNLHNRKR | 6.809 ± 0.048 |
| WHFFVKKRVRCDSHSSMQWN | -0.677 ± 0.69 |
| WHPYYIQVKGILALLSSVHH | 3.18 ± 0.073 |
| WHSISYF | inactive |
| WIATC | 0.214 ± 0.29 |
| WICMAP | 3.42 ± 0.089 |
| WIGGVKG | -0.427 ± 0.72 |
| WIGNRVSSMFDGTGS | 0.538 ± 0.55 |
| WIHACK | 0.778 ± 0.45 |
| WIKLRLGFKRSFIPECGFLG | -0.208 ± 0.54 |
| WIMKGY | -0.123 ± 1.1 |
| WINYRRDPTAHSNSYFRVGI | 0.059 ± 0.58 |
| WIVSFMAIRH | 1.51 ± 0.25 |
| WIYGWACWYCNLNDSTRVGK | 5.798 ± 0.047 |
| WKASFIRFWFVAIMFMYNLC | -0.1 ± 0.42 |
